This data set relates to ATP. Description: switch fluorescence ratio, 500 uM ATP over buffer (Cy3 cluster intensity, sum of 5 cycles each) (fold (ratio)); higher = stronger signal-on switching upon ATP binding; sequences stand for … in TCGTCGGCAGCGTCAGATGTGTATAAGAGACAGTTTTTTTTTTTTTTTTTTTTTTTTT…TC. To be noted: aptamer strand: ATP DNA aptamer (quencher-CACCTGGGGGAGTATTGCGGAGGAAGG + anchor), 100 nM annealed; ATP concentration: 500 uM. The gist of the method: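 For every switch-domain sequence, the fluorescence ratio is the mean of per-cluster values, each being summed target-cycle Cy3 intensity over summed buffer-cycle Cy3 intensity. Clusters outside 100-1000 RFU were excluded. On a modified Illumina MiSeq flow-cell, the Cy3-labelled switching-strand clusters were annealed to 100 nM quencher-labelled ATP aptamer, imaged in selection buffer and then after 15 min with 500 uM ATP at 22 °C. Five such cycles were run, with NaOH stripping and re-annealing between them.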

± gives the standard deviation of the averaged measurements.
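Further: ATP exposure 15 min at 22 °C before imaging.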

For TCTGTTAGGA, the switch fluorescence ratio worked out at 1 ± 0.035.

With TCTGTTCTTG, the switch fluorescence ratio is 0.987 ± 0.012.

In the case of TCTGTTGACG, the switch fluorescence ratio was 1.0236 ± 0.00081.

TCTGTTGCAG: the switch fluorescence ratio was determined as 0.999 ± 0.024.

Take TCTGTTTGTA: the switch fluorescence ratio was found to be 0.9816 ± 0.0075.

On to TCTTAAAAT, for which the switch fluorescence ratio amounted to 1.006 ± 0.0097.

For TCTTAAGGGA, the switch fluorescence ratio amounted to 0.979 ± 0.025.

Consider TCTTAATTTT, for which the switch fluorescence ratio was 0.973 ± 0.024.

In the case of TCTTACAATA, the switch fluorescence ratio amounted to 1.14 ± 0.091.

Regarding TCTTACAATC, the switch fluorescence ratio was 1.1 ± 0.095.

Consider TCTTAGAGGG, for which the switch fluorescence ratio came to 0.991 ± 0.017.

On to TCTTAGGAGG, for which the switch fluorescence ratio turned out to be 0.9691 ± 0.0023.

TCTTAGGCGC: the switch fluorescence ratio is 1.03 ± 0.029.

As for TCTTAGGCGT, the switch fluorescence ratio stood at 1.02 ± 0.022.

For the sequence TCTTAGGGGA, the switch fluorescence ratio came out at 0.998 ± 0.017.

With TCTTAGTTGT, the switch fluorescence ratio came out at 0.988 ± 0.024.

For TCTTATCTTG, the switch fluorescence ratio is 0.978 ± 0.037.

In the case of TCTTCAAGTT, the switch fluorescence ratio was found to be 0.988 ± 0.031.

For TCTTCCTGGA, the switch fluorescence ratio came out at 1.08 ± 0.039.

As for TCTTCGTTTT, the switch fluorescence ratio came to 1.23 ± 0.32.

On to TCTTGAACTT, for which the switch fluorescence ratio amounted to 1 ± 0.018.

With TCTTGAATGG, the switch fluorescence ratio was 0.986 ± 0.0051.

As for TCTTGATCTA, the switch fluorescence ratio was 1.015 ± 0.0098.

With TCTTGATCTG, the switch fluorescence ratio is 1.016 ± 0.0021.

As to TCTTGCATGT, the switch fluorescence ratio turned out to be 1.02 ± 0.028.

As for TCTTGCCGCT, the switch fluorescence ratio was 1.01 ± 0.061.

For the sequence TCTTGGATCT, the switch fluorescence ratio turned out to be 0.987 ± 0.055.

Take TCTTGGGGAC: the switch fluorescence ratio is 1.14 ± 0.2.

Turning to TCTTGGGGGT, the switch fluorescence ratio stood at 1.03 ± 0.049.

TCTTGTAACT: the switch fluorescence ratio was determined as 1.01 ± 0.017.

As for TCTTGTACGT, the switch fluorescence ratio came to 1.01 ± 0.03.

Regarding TCTTTAAAGA, the switch fluorescence ratio is 0.9785 ± 0.0083.

Regarding TCTTTAGGGA, the switch fluorescence ratio amounted to 1.02 ± 0.054.

Take TCTTTCATAT: the switch fluorescence ratio was 0.9392 ± 0.0062.

As for TCTTTGGGAT, the switch fluorescence ratio stood at 0.962 ± 0.033.

Regarding TCTTTGTTAC, the switch fluorescence ratio was 1.05 ± 0.022.

Take TCTTTTGAGG: the switch fluorescence ratio was 1.02 ± 0.056.

With TCTTTTGGGC, the switch fluorescence ratio stood at 1.02 ± 0.076.

In the case of TCTTTTTGGA, the switch fluorescence ratio was 1.017 ± 0.0079.

Turning to TCTTTTTGGT, the switch fluorescence ratio turned out to be 0.992 ± 0.018.

For the sequence TGAAAAAACA, the switch fluorescence ratio stood at 1.02 ± 0.019.

Turning to TGAAAAAATT, the switch fluorescence ratio stood at 1.02 ± 0.071.

For the sequence TGAAAAAGTT, the switch fluorescence ratio worked out at 1.32 ± 0.47.

As for TGAAAAATTG, the switch fluorescence ratio was 0.985 ± 0.053.

With TGAAAAGAAG, the switch fluorescence ratio is 1.029 ± 0.0061.

TGAAAAGGTC: the switch fluorescence ratio was found to be 0.982 ± 0.063.

As to TGAAAAGTCG, the switch fluorescence ratio is 0.99334 ± 0.00072.

As for TGAAAATCTT, the switch fluorescence ratio amounted to 1.18 ± 0.25.

TGAAAATTGA: the switch fluorescence ratio was determined as 0.999 ± 0.017.

On to TGAAACTATT, for which the switch fluorescence ratio turned out to be 1.01 ± 0.027.

Take TGAAACTTGA: the switch fluorescence ratio is 1.042 ± 0.0055.

On to TGAAAGGGGG, for which the switch fluorescence ratio was 0.99 ± 0.014.

For the sequence TGAAATATGG, the switch fluorescence ratio amounted to 1 ± 0.017.

Take TGAAATGCTA: the switch fluorescence ratio amounted to 1.036 ± 0.0073.

As for TGAAATTAGT, the switch fluorescence ratio is 1.01 ± 0.013.

For the sequence TGAAATTGGA, the switch fluorescence ratio was found to be 0.999 ± 0.015.

On to TGAAATTTTG, for which the switch fluorescence ratio was found to be 1.01 ± 0.015.

For the sequence TGAACATTTG, the switch fluorescence ratio worked out at 1.03 ± 0.025.

On to TGAACCGCTA, for which the switch fluorescence ratio turned out to be 1.81 ± 0.16.

In the case of TGAACGGGTG, the switch fluorescence ratio came to 1.04 ± 0.068.

With TGAACTTGAC, the switch fluorescence ratio is 1.14 ± 0.052.

As to TGAAGAACGC, the switch fluorescence ratio worked out at 1.07 ± 0.021.

TGAAGACAAC: the switch fluorescence ratio came out at 1.04 ± 0.025.

For TGAAGATTTT, the switch fluorescence ratio is 0.9704 ± 0.0081.

Turning to TGAAGCGGCG, the switch fluorescence ratio was determined as 0.942 ± 0.023.

On to TGAAGCTGAT, for which the switch fluorescence ratio turned out to be 1.02 ± 0.059.

As for TGAAGCTGGG, the switch fluorescence ratio stood at 1.07 ± 0.12.

TGAAGGCTTA: the switch fluorescence ratio turned out to be 0.994 ± 0.024.

Turning to TGAAGGGGCA, the switch fluorescence ratio is 0.951 ± 0.041.

On to TGAAGGTCGG, for which the switch fluorescence ratio came to 0.9917 ± 0.0039.

On to TGAATAGGGG, for which the switch fluorescence ratio is 0.989 ± 0.0095.

As to TGAATCAACA, the switch fluorescence ratio worked out at 1.04 ± 0.037.

Regarding TGAATGACGT, the switch fluorescence ratio amounted to 0.972 ± 0.04.

In the case of TGAATGAGTT, the switch fluorescence ratio was determined as 1.02 ± 0.03.

Regarding TGAATGATC, the switch fluorescence ratio worked out at 1 ± 0.043.

Consider TGAATGGGCA, for which the switch fluorescence ratio stood at 0.973 ± 0.024.

With TGAATGTTGG, the switch fluorescence ratio was determined as 0.988 ± 0.025.

With TGAATTATTT, the switch fluorescence ratio turned out to be 1.02 ± 0.035.

As to TGAATTGGGG, the switch fluorescence ratio turned out to be 1.06 ± 0.084.

On to TGAATTTTTA, for which the switch fluorescence ratio was determined as 1 ± 0.011.

Turning to TGAATTTTTT, the switch fluorescence ratio came to 0.993 ± 0.028.

Turning to TGACAGTATC, the switch fluorescence ratio worked out at 1.08 ± 0.011.

Turning to TGACAGTGGG, the switch fluorescence ratio was determined as 0.959 ± 0.04.

On to TGACATAGGA, for which the switch fluorescence ratio came out at 1.001 ± 0.0029.

In the case of TGACATCGGG, the switch fluorescence ratio came to 1.01 ± 0.033.

For the sequence TGACCATTGC, the switch fluorescence ratio stood at 1.093 ± 0.0059.

In the case of TGACCCTTTT, the switch fluorescence ratio is 1 ± 0.077.

In the case of TGACCGGAGT, the switch fluorescence ratio stood at 1.03 ± 0.033.

As for TGACCTGAGA, the switch fluorescence ratio was 1.04 ± 0.021.

Consider TGACCTGGCT, for which the switch fluorescence ratio came to 1.04 ± 0.035.

TGACGAAGGG: the switch fluorescence ratio was determined as 0.987 ± 0.023.

Regarding TGACGATAGG, the switch fluorescence ratio was 0.995 ± 0.013.

As to TGACGGGGCG, the switch fluorescence ratio is 1.03 ± 0.05.

TGACGGGGGG: the switch fluorescence ratio amounted to 1.06 ± 0.12.

TGACGGGGGT: the switch fluorescence ratio is 0.989 ± 0.028.

Regarding TGACGGGGTG, the switch fluorescence ratio stood at 1.01 ± 0.044.

TGACGGTGGG: the switch fluorescence ratio turned out to be 0.962 ± 0.023.

For TGACGTAAGG, the switch fluorescence ratio is 0.994 ± 0.026.

With TGACTGAAGG, the switch fluorescence ratio came out at 0.9503 ± 0.0065.

As for TGACTGTATT, the switch fluorescence ratio came to 1.14 ± 0.042.

TGACTTTGAT: the switch fluorescence ratio was determined as 0.95 ± 0.013.

In the case of TGAGAAAATT, the switch fluorescence ratio is 1.017 ± 0.0034.

Regarding TGAGAGACGG, the switch fluorescence ratio came out at 0.968 ± 0.063.

As to TGAGAGGATC, the switch fluorescence ratio turned out to be 1.018 ± 0.0025.

Consider TGAGAGGCGT, for which the switch fluorescence ratio amounted to 1.022 ± 0.0098.

Consider TGAGATAAAG, for which the switch fluorescence ratio was determined as 0.967 ± 0.001.

TGAGATAGCT: the switch fluorescence ratio stood at 0.998 ± 0.033.

TGAGATGCGG: the switch fluorescence ratio stood at 1.03 ± 0.038.

Consider TGAGATGGTT, for which the switch fluorescence ratio amounted to 1.01 ± 0.029.

For the sequence TGAGATTCTG, the switch fluorescence ratio was 1.05 ± 0.043.

As to TGAGCACCGT, the switch fluorescence ratio worked out at 1 ± 0.017.

On to TGAGCACGGG, for which the switch fluorescence ratio came out at 1.03 ± 0.02.

Regarding TGAGCCTGCT, the switch fluorescence ratio amounted to 0.98 ± 0.012.

Take TGAGCGGTCA: the switch fluorescence ratio was found to be 0.99 ± 0.015.

In the case of TGAGCTAGCT, the switch fluorescence ratio was 1.01 ± 0.033.

With TGAGCTGAGG, the switch fluorescence ratio was 0.957 ± 0.049.

Take TGAGCTGGGG: the switch fluorescence ratio worked out at 0.996 ± 0.02.

For TGAGGATTTT, the switch fluorescence ratio was 1.05 ± 0.1.

For TGAGGCATGT, the switch fluorescence ratio is 1.05 ± 0.036.

TGAGGCGGGG: the switch fluorescence ratio was 0.9642 ± 0.0059.
